Measurements reported in EP4725963A1 (Jiangsu Hengrui Pharmaceuticals Co., Ltd., dated 2026).
Numbering of substitutions follows the chain as printed.

T1: human NPR1 full-length protein overexpressed on CHO-K1 cells (human, UniProt P16066 33-1061)
T1 sequence: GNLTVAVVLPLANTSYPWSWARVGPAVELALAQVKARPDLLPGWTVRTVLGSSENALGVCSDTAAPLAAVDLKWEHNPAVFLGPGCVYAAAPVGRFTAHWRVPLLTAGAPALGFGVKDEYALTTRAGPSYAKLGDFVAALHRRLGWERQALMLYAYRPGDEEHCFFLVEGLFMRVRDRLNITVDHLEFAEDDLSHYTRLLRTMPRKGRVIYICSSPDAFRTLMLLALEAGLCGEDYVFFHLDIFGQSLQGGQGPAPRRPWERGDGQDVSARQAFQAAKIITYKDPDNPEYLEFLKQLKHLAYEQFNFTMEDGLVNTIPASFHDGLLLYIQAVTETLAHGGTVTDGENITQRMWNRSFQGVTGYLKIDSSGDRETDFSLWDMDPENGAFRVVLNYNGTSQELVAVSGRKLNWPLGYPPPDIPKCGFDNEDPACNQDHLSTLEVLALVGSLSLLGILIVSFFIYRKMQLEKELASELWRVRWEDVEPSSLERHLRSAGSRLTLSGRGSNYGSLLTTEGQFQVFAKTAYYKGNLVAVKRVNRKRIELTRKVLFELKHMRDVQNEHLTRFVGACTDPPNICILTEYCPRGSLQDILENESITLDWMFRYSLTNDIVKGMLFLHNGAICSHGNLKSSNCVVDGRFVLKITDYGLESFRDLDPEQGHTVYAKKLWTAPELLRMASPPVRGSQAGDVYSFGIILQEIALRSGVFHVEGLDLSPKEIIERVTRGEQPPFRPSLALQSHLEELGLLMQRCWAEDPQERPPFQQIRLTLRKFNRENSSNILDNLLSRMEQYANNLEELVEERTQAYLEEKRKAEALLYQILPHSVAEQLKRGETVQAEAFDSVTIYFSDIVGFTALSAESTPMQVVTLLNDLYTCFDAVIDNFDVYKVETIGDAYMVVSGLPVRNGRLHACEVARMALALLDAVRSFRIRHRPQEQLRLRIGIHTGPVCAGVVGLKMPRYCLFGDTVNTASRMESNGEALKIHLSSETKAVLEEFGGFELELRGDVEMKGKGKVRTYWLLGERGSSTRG

T2: hNPR2 (human, UniProt P20594 23-458, limits assumed)
T2 construct: Commercial protein; construct not described; also called hNPR2 antigen
T2 sequence (looked up): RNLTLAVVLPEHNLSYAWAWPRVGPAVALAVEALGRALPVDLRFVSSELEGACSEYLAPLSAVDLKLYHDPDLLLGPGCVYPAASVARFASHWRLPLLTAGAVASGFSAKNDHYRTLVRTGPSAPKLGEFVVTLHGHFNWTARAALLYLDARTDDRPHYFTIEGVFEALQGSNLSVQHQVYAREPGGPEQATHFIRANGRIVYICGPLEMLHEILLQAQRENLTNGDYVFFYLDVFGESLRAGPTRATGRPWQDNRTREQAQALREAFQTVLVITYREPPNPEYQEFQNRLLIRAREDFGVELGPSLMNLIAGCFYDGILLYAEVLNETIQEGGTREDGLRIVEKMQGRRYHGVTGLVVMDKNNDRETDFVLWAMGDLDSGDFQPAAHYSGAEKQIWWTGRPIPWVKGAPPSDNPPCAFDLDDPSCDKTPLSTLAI

B1: Hu135H1L1 (antibody, human IgG1, kappa, L234A L235A, V domains shown)
VH: DVKLVESGEGLVKPGGSLRLSCAASGFTFSTYGMSWVRQAPGKRLEWVAYINSGGNYIYYADTVKGRFTISRDNAKNSLYLQMNSLRAEDTAVYYCTRDRTTIVVHWYFDVWGQGTTVTVSS
VL: DIQLTQSPSSLSASVGDRVTITCSASSSLNFMHWYQQKPGKSPKRWIYDTSKLASGVPSRFSGSGSGTDYTLTISSLQPEDFATYYCHQRSSTFGGGTKVEIKR
B2: Hu135H2L1 (antibody, human IgG1, kappa, L234A L235A, V domains shown)
VH: B1 VH with T28S, F29I
VL: B1 VL
B3: Hu127H4L1 (antibody, human IgG1, kappa, L234A L235A)
heavy: not shown
light: DIVMTQSPDSLAVSLGERATINCRASESVDSYGNSFMHWYQQKPGQPPKVLIYLASTLESGVPDRFSGSGSRTDFTLTISSLQAEDVAVYYCQQNNEDPLTFGQGTKLEIKRTVAAPSVFIFPPSDEQLKSGTASVVCLLNNFYPREAKVQWKVDNALQSGNSQESVTEQDSKDSTYSLSSTLTLSKADYEKHKVYACEVTHQGLSSPVTKSFNRGEC
B4: Hu127H4L3 (antibody, human IgG1, kappa, L234A L235A)
heavy: not shown
light: B3 light with D1N, M4L
B5: Hu127H4L5 (antibody, human IgG1, kappa, L234A L235A, V domains shown)
VH: EAYLVQSGAEVKKPGASVKVSCKASGYSFTGYFMNWVRQAPGKGLEWMGRINPYSGDTFYNQKFKGRVTLTVDKSTSTVYMELSSLRSEDTAVYYCARRGYGNRGYWYFDVWGQGTTVTVSS
VL: NIQLTQSPSSLSASVGDRVTITCRASESVDSYGNSFMHWYQQKPGKAPKVLIYLASTLESGVPSRFSGSGSRTDFTLTISSLQPEDFATYYCQQNNEDPLTFGQGTKLEIKR
B6: Hu127H4L6 (antibody, human IgG1, kappa, L234A L235A, V domains shown)
VH: B5 VH
VL: B5 VL with D17Q, A47P
B7: Hu127H7L1 (antibody, human IgG1, kappa, L234A L235A)
heavy: not shown
light: B3 light
B8: Hu127H7L3 (antibody, human IgG1, kappa, L234A L235A)
heavy: not shown
light: B3 light with D1N, M4L
B9: Hu127H7L5 (antibody, human IgG1, kappa, L234A L235A)
heavy: not shown
light: NIQLTQSPSSLSASVGDRVTITCRASESVDSYGNSFMHWYQQKPGKAPKVLIYLASTLESGVPSRFSGSGSRTDFTLTISSLQPEDFATYYCQQNNEDPLTFGQGTKLEIKRTVAAPSVFIFPPSDEQLKSGTASVVCLLNNFYPREAKVQWKVDNALQSGNSQESVTEQDSKDSTYSLSSTLTLSKADYEKHKVYACEVTHQGLSSPVTKSFNRGEC
B10: Hu127H7L6 (antibody, human IgG1, kappa, L234A L235A)
heavy: not shown
light: B9 light with D17Q, A47P
B11: Hu127H8L1 (antibody, human IgG1, kappa, L234A L235A)
heavy: not shown
light: B3 light
B12: Hu127H8L3 (antibody, human IgG1, kappa, L234A L235A)
heavy: not shown
light: B3 light with D1N, M4L
B13: Hu127H8L5 (antibody, human IgG1, kappa, L234A L235A)
heavy: not shown
light: B9 light
B14: Hu127H8L6 (antibody, human IgG1, kappa, L234A L235A)
heavy: not shown
light: B9 light with D17Q, A47P
B15: Hu102H4L6 (antibody, human IgG1, kappa, L234A L235A, V domains shown)
VH: B1 VH with T31S, G33A, N52S, S53R, N56D, T63S, T91S, R100Q, I103V
VL: DIQLTQSPSSLSASVGDRVTITCSASSSINYMHWYQQKPGKSPKRWIYDTSKLASGVPSRFSGSGSGTDYTLTISSLQPEDFATYYCHQRNSYTFGGGTKVEIKR
notes: Humanized, human IgG1 LALA/kappa; also called Hul02H4L6
B16: CHI-102 (antibody, human IgG1, kappa, V domains shown)
VH: DVKLVESGEGLVKPGGSLKLSCAASGFTFSTYAMSWVRQTPEKRLEWVAYISRGGDYIYYADTVKGRFTISRDNARNTLYLQMSSLKSEDTAMYYCTRDQTTVVVHWYFDVWGTGTTVTVSS
VL: QIVLTQSPAIMSASPGEKVTMTCSASSSINYMHWYQQKPGTSPKRWIYDTSKLASGVPARFSGSGSGTSYSLTISSMEAGDAATYYCHQRNSYTFGGGTKLEIKR
B17: Hu102H5L6 (antibody, human IgG1, kappa, L234A L235A, V domains shown)
VH: B1 VH with N52S, S53R, N56D, R100Q, I103V
VL: B15 VL
B18: Hu102H3L6 (antibody, human IgG1, kappa, L234A L235A, V domains shown)
VH: B1 VH with G33A, N52S, S53R, N56D, R100Q, I103V
VL: B15 VL

target: T1, human NPR1 full-length protein …; experiment: cell-based or functional assay

In order of falling “cGMP production: EC50” value:
1. B2  186 nM
2. B1  116 nM

In order of rising “cGMP production: Emax” value:
1. B1  0.43
2. B2  0.45

In order of rising “cGMP production: Emin” value:
1. B2  0.143
2. B1  0.22

target: T1, human NPR1 full-length protein …; experiment: cell-based or functional assay; remark: another data set of the same source

In order of rising “cGMP production: EC50” value:
1. B5  32.4 nM
2. B10  35.5 nM
3. B14  36.6 nM
4. B6  38.5 nM
5. B13  42 nM
6. B9  42.6 nM
7. B3  45.6 nM
8. B12  48.6 nM
9. B4  51.4 nM
10. B7  55.8 nM
11. B8  56.5 nM
12. B11  62.6 nM

In order of rising “cGMP production: Emax” value:
1. B14  0.42
2. B13  0.43
3. B11  0.45
4. B12  0.46
5. B4  0.48
6. B10  0.49
7. B7  0.5
8. B9  0.51
9. B6  0.54
10. B8  0.54
11. B5  0.59
12. B3  0.6

In order of rising “cGMP production: Emin” value:
1. B10  0.063
2. B13  0.065
3. B8  0.066
4. B5  0.068
5. B9  0.068
6. B14  0.068
7. B12  0.072
8. B6  0.073
9. B3  0.077
10. B7  0.081
11. B11  0.083
12. B4  0.087

target: T3, fusion protein of the human NPR1 protein extracellular domain and human-IgG1-Fc (human); experiment: ELISA, plate coated with 4 µg/mL hNPR1 antigen
T3 construct: also called hNPR1-hFc; hNPR1
T3 sequence (chain, as listed by the source limits assumed): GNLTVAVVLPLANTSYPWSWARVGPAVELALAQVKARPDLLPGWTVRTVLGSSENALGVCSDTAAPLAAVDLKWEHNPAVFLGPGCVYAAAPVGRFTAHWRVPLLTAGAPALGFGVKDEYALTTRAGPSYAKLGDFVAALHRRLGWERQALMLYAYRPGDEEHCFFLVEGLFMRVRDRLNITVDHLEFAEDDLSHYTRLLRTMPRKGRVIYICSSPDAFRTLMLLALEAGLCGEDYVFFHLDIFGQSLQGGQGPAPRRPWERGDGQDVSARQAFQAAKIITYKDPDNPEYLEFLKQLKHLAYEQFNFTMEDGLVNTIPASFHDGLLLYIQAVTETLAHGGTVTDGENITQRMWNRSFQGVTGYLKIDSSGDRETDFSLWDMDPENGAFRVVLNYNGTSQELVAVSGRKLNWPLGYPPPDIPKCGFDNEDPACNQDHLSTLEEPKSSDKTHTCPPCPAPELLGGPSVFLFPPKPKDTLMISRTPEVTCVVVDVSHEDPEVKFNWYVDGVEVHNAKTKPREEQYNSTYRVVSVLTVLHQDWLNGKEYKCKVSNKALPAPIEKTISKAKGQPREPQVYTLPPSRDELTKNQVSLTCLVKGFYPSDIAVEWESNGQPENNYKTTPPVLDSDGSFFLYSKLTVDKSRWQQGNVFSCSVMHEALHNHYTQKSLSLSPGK

Work on B15 yielded an EC50 of 1.32 nM.

target: T1, human NPR1 full-length protein …; experiment: cell-based or functional assay; remark: another data set of the same source

With B15 the “Ratio (without ANP) of NPR1 antigens remaining on the cell surface after endocytosis to the initial number, 10 min, 20 µg/mL” value was 1.14 ratio.

B15 was tested, and the “Ratio (without ANP) of NPR1 antigens remaining on the cell surface after endocytosis to the initial number, 1 h, 20 µg/mL” value was 0.58 ratio.

With B15 the “Ratio (without ANP) of NPR1 antigens remaining on the cell surface after endocytosis to the initial number, 7 hrs, 20 µg/mL” value was 0.53 ratio.

In the case of B15, the “Ratio (without ANP) of NPR1 antigens remaining on the cell surface after endocytosis to the initial number, 24 hrs, 20 µg/mL” value is reported as 0.73 ratio.

target: T2, hNPR2; experiment: ELISA, plate coated with 4 µg/mL antigen

B15: no binding (tested: 20 µg/mL (highest concentration)).

target: T1, human NPR1 full-length protein …; experiment: cell-based or functional assay; remark: another data set of the same source

In order of falling “cGMP production: EC50” value:
1. B16  54.9 nM
2. B18  48.5 nM
3. B15  45.9 nM
4. B17  43.6 nM

In order of falling “cGMP production: Emax” value:
1. B15  0.65
2. B18  0.61
3. B17  0.59
4. B16  0.57

In order of falling “cGMP production: Emin” value:
1. B16  0.23
2. B17  0.21
3. B15  0.17
4. B18  0.16
